# From article PMC3761233
# How the values were obtained:
# [1] = molecular target: endogenous porcine aminopeptidase N on ST cells and IPI-21 cells (porcine (endogenous in ST and IPI-21 cells)) (UniProt P15145); test: flow cytometry on cells
# [2] = molecular target: porcine aminopeptidase N, expressed from a plasmid on BHK-21 or HEK 293T cells (porcine) (UniProt P15145); test: flow cytometry on cells
substance,measurement,setting,value
soluble TGEV spike protein (S1 subunit fused to the human IgG Fc portion) (from UniProt P07946 29-1447) (Fc fusion),"percent of cells bound (ST cells, after neuraminidase) (% of the cells)",[1],> 60
same,"percent of cells bound (ST cells, without neuraminidase) (% of the cells)",[1],50
same,"percent of cells bound (BHK-21 cells expressing APN, after neuraminidase) (% of the cells)",[2],> 60
